# T1: C4.4a on A549 cells transfected with the sequence for the complete C4.4a receptor (Homo sapiens)
# T1 chain: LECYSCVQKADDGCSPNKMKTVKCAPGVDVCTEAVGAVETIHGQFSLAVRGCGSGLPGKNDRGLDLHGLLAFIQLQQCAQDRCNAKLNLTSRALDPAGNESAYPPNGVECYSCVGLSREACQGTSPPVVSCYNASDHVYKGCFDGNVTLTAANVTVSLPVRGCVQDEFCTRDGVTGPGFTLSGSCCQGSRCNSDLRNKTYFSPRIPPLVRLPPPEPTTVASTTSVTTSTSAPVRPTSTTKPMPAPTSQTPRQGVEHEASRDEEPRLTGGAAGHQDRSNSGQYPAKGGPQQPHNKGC
# Biological target: T1, C4.4a on A549 cells transfected with …
# Test: cell-based or functional assay
row,Binder,IC50 [nM] A549: C4.4a (cell viability) [nM]
1,"ADC of Example 49 (antibody, V domains shown, toxophore-linker on Cys (via S); toxophore-linker on Cys (via S)) VH: EVQLLESGGGLVQPGGSLRLSCAASGFTFSSAWMSWVRQAPGKGLEWVSYISSSGSTIYYADSVKGRFTISRDNSKNTLYLQMNSLRAEDTAVYYCAREGLWAFDYWGQGTLVTVSS VL: QSVLTQPPSVSGAPGQRVTISCTGSSSNIGAGYVVHWYQQLPGTAPKLLIYDNNKRPSGVPDRFSGSKSGTSASLAISGLRSEDEADYYCAAYDDSLSGPVFGGGTKLTVLG",0.076
2,"ADC of Example 52 (antibody, V domains shown, toxophore-linker on Cys (via S); toxophore-linker on Cys (via S)) VH: EVQLLESGGGLVQPGGSLRLSCAASGFTFSSAWMSWVRQAPGKGLEWVSYISSSGSTIYYADSVKGRFTISRDNSKNTLYLQMNSLRAEDTAVYYCAREGLWAFDYWGQGTLVTVSS VL: QSVLTQPPSVSGAPGQRVTISCTGSSSNIGAGYVVHWYQQLPGTAPKLLIYDNNKRPSGVPDRFSGSKSGTSASLAISGLRSEDEADYYCAAYDDSLSGPVFGGGTKLTVLG",0.04
3,"ADC of Example 53 (antibody, V domains shown, toxophore-linker on Cys (via S); toxophore-linker on Cys (via S)) VH: EVQLLESGGGLVQPGGSLRLSCAASGFTFSSAWMSWVRQAPGKGLEWVSYISSSGSTIYYADSVKGRFTISRDNSKNTLYLQMNSLRAEDTAVYYCAREGLWAFDYWGQGTLVTVSS VL: QSVLTQPPSVSGAPGQRVTISCTGSSSNIGAGYVVHWYQQLPGTAPKLLIYDNNKRPSGVPDRFSGSKSGTSASLAISGLRSEDEADYYCAAYDDSLSGPVFGGGTKLTVLG",0.046
4,"ADC of Example 55 (antibody, V domains shown, toxophore-linker on Cys (via S); toxophore-linker on Cys (via S)) VH: EVQLLESGGGLVQPGGSLRLSCAASGFTFSDYQMTWIRQTPGKGLEWVSGISWNGGSTHYADSVKGRFTISRDNSKNTLYLQMNSLRAEDTAVYYCAKGDYLVYSSYYFKSWGQGTLVTVSS VL: not shown",0.053

# Source: US8992932B2 (Seattle Genetics, Inc., dated 2015)
